This note sets out measurements from patent KR20230108156A (dated 2023).

A value given as a limit tells only on which side of the number the result lay.

Assay [1] addresses CD40L on CD40L 표면발현 CHO 세포 (CHO cells expressing CD40L on the surface, ATCC) (UniProt P29965). The assay is described as follows: flow cytometry on CD40L CHO cells, 0.01-0.5 μg/test. In general terms: Flow cytometry measures light scatter and fluorescence of single cells or particles in a stream.
Assay [2] addresses T1, CD40L in lysates of Jurkat cells and HeLaS3 cells (32 ~ 39 kDa band) (human, UniProt P29965 1-261).
T1 construct: Denatured protein on a PVDF membrane
T1 sequence (looked up): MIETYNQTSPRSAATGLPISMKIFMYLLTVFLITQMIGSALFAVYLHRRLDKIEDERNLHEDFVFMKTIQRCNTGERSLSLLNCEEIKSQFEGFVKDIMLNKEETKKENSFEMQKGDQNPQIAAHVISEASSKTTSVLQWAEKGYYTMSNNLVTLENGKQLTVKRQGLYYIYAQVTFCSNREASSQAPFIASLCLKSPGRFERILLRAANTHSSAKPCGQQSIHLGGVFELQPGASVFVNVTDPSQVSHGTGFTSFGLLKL
Briefly: western blot of Jurkat and HeLaS3 lysates, reducing and non-reducing, 14D6 0.5 μg/ml. In general terms: A western blot detects proteins with antibodies after separation by electrophoresis.

In assay [3] the target is T2, CD40L induced on T cells of human PBMC stimulated with PMA and ionomycin (human, UniProt P29965 1-261).
T2 construct: whole, on cells
T2 sequence (looked up): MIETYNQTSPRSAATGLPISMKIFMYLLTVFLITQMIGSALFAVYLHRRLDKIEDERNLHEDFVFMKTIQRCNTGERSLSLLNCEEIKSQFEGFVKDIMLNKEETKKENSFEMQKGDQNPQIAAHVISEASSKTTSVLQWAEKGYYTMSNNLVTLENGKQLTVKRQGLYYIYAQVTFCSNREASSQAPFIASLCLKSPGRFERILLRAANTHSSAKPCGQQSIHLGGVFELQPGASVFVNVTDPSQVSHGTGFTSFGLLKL
The assay is described as follows: flow cytometry on PMA/ionomycin-stimulated human PBMC, 0.1 μg, CD3-APC gate, anti-mouse Ig-FITC.

The target of assay [4] is CD40L-hFc 단백질 (Sino biological, Accession#: NP_000065.1, Cat: 10239-H01H) (human) (UniProt P29965). Briefly: competition, flow cytometry: 14D6 pre-mixed with CD40L-hFc (2 μg), binding to CD40 on Bjab cells read.
For assay [5], the target named is 재조합 인간 CD40L 단백질 (recombinant human CD40L protein, Sino biological, Accession#: NP_000065.1, Cat: 10239-H08E) (human) (UniProt P29965). The assay is described as follows: cell-based or functional assay.
Assay [6] has as its target CD40L on CD40L 표면발현 CHO 세포 (CHO cells expressing CD40L on the surface, ATCC) (UniProt P29965). Briefly: cell-based or functional assay.
The target in assay [7] is 재조합 인간 CD40L 단백질 (recombinant human CD40L protein, Sino biological, Accession#: NP_000065.1, Cat: 10239-H08E) (human) (UniProt P29965). Briefly: ELISA, plate coated with recombinant human CD40L 100 ng/well, 14D6 two-fold dilutions from 1000 ng/ml, anti-mouse IgG-HRP. On the technique in general: In an ELISA, binding on a coated surface is turned into a signal by an enzyme label.

The target in assay [8] is T3, CD40 on CD40 표면발현 CHO 세포 (CHO cells expressing CD40 on the surface, ATCC) (UniProt P25942 21-277, limits assumed).
T3 construct: whole, on cells; also called CD40 CHO 세포
The assay is described as follows: flow cytometry on CD40 CHO cells, goat anti-mouse Ig-FITC.

T3 sequence (P25942 21-277 limits assumed): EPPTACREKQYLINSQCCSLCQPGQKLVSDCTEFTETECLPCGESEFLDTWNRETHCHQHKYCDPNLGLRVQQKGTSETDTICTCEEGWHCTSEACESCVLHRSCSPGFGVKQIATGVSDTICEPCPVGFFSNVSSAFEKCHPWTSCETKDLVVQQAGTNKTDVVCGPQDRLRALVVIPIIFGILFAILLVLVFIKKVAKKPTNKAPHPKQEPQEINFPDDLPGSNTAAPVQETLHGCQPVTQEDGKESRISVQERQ

B1: 14D6-52-5 단일클론항체 (14D6 단클론항체, mouse) (antibody, V domains shown)
VH: QVQLQQSGAELVKPGASVKLSCKASGYTFTRYYMFWVKQRPGQGLEWIGEINPTNGDTNFNEEFKSKATLTVDKSSSTAYMQLSSLTSEDSAVYYCTRPLGSRDAMDYWGPGTSVTVSS
VL: DIVLTQSPASLAVSLGQRATISCRASQSVSSSRYSYMHWYQQKPGQPPKLLIKYASSLESGVPARFSGSGSGTDFTLNIHPVEGEDTATYYCQHSWELPWTFGGGTKLEIK
notes: Mouse monoclonal antibody from a hybridoma (Balb/c mouse immunised with recombinant human CD40L); also called 14D6 마우스항체; Mouse 14D6
In assay [1], B1 displayed an amount at which binding is saturated of more than 0.1 µg. The binding result is on record as “binds” in assay [2], “binds” in assay [3] and “no binding (tested: 0.05μg/test)” in assay [8]. Moreover, the amount at which blocking equals the negative control in assay [4] is more than 0.1 µg. Moreover, the concentration at which binding is saturated was more than 0.1 μg/50μl in assay [4] and more than 100 ng/mL in assay [7]. In assay [5], the antibody concentration for complete blocking of SEAP OD 655nm (HEK-Blue CD40L cells), CD40L 12.5ng/ml was more than 50 ng/mL. Further, the antibody concentration for complete blocking of SEAP OD 655nm (HEK-Blue CD40L cells), CD40L printed as 12.5ng/ml a second time (25ng/ml probably meant) in assay [5] was more than 500 ng/mL. For the same molecule, the ICAM-1 expression on Ramos B cells co-cultured with CD40L CHO cells (flow cytometry) in assay [6] was more than 0.5 μg/test.
